We go through nine molecules from US20170198040A1 (Novartis, published 2017).

In one assay the target is T1, MW82 (huCD32a H131) (human, UniProt P12318).
T1 sequence (receptor, looked up): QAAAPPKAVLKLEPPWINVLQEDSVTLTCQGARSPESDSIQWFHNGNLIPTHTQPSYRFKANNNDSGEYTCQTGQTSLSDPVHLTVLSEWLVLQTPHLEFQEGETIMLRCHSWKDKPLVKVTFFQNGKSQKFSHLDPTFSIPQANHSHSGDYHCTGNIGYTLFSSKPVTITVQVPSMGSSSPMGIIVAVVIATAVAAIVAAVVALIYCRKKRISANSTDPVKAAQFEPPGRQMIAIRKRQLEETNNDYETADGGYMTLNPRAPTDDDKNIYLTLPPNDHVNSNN
Put plainly: flow cytometry on stable CHO cells expressing huCD32a H131 (MW82); hIgG1 [N297A] antibody, GMFI. The procedure: (§1) HuCD32b and huCD32a have high degree of sequence homology. […] CHO cells were collected following detachment with PBS containing 2 mM EDTA and pelleted. Cell pellets were washed once in PBS and suspended in FACS Buffer (PBS1× containing 2% BSA, 2 mM EDTA and 0.1% NaN3), counted and suspended at 0.25×10⁶ cells per ml. 50'000 cells/well (200 μl) were then dispensed in V-bottomed 96 well plates. Plates were spun for 5 min at 1600 rpm and the supernatant discarded. […] After 3 successive washes with FACS buffer, cells were suspended in 50 μl FACS buffer containing a 1/100 dilution of the F(ab′)2 anti-human F(ab′)2-PE (Jackson Immunoresearch#109-116-097) and further incubated 30 min at 4° C. Cells were washed twice and suspended in 200 μl FACS buffer and acquired on a FACS Canto II (acquisition of 5000 cells in the live cell gate). The Geometric Mean Fluorescence (GMFI in the PE channel) was used as a measure of the binding intensity of each antibody.
In general terms: Flow cytometry measures light scatter and fluorescence of single cells or particles in a stream.

In assay [1] the target is T2, human CD32b expressed endogenously on human cells (human, UniProt P31994 43-310).
T2 construct: whole, on cells; The background says that CD32b1 is the form on lymphoid cells and CD32b2 the form on myeloid cells; also called CD32b on primary human B cells, plasma cells, macrophages, BJAB, KARPAS422 and Daudi cells
T2 sequence (looked up): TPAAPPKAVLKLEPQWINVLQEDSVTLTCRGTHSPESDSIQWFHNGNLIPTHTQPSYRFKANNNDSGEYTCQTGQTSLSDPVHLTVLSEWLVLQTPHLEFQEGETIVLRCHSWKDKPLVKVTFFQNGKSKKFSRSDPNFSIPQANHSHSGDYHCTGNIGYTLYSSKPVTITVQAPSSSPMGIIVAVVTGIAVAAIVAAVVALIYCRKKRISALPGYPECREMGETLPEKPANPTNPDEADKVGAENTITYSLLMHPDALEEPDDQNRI
The assay can be described thus: flow cytometry on BJAB cells; biotinylated hIgG1 [N297A] antibody, streptavidin-PE, GMFI. As for the experimental part:
The binding of huCD32b specific antibodies to the BJAB cell line was evaluated by flow cytometry. BJAB cells were collected and suspended in FACS Buffer (PBS1× containing 2% BSA, 2 mM EDTA), counted and suspended at 0.25×10⁶ cells per ml. 50'000 cells/well (200 μl) were then dispensed in V-bottomed 96 well plates. Plates were spun for 5 min at 1500 rpm and the supernatant discarded. […] Biotinylation of antibodies was performed using the Lightning-Link biotin conjugation kit (Type A) from Innova Biosciences (Cat. No 704-0010) according to the supplier's instructions. After 2 successive washes with FACS buffer, cells were suspended in 50 μl FACS buffer containing a 1/500 dilution of Streptavidin-PE (Invitrogen 521388) and further incubated for 20 min at 4° C. Cells were washed twice and suspended in 200 μl FACS buffer and acquired on a FACS Fortessa. The Geometric Mean Fluorescence (GMFI in the PE channel) was used as a measure of the binding intensity of each antibody.

For assay [2], the target named is T2, human CD32b expressed endogenously on …. Put plainly: flow cytometry titration (GMFI), biotinylated IgG1 [N297A] on purified primary human B cells, CD20+ gate. As for the experimental part:
Plates were spun for 5 min at 1500 rpm and the supernatant discarded. […] Biotinylation of antibodies was performed using the Lightning-Link biotin conjugation kit (Type A) from Innova Biosciences (Cat. No 704-0010) according to the supplier's instructions. […] Cells were washed twice and suspended in 200 μl FACS buffer and acquired on a FACS Fortessa.

In assay [3] the target is T3, huCD64 (Fc gamma RI) expressed on stable CHO cells (human, UniProt P12314 16-374).
T3 construct: whole, on cells; also called CHO-huCD64
T3 sequence (P12314 16-374): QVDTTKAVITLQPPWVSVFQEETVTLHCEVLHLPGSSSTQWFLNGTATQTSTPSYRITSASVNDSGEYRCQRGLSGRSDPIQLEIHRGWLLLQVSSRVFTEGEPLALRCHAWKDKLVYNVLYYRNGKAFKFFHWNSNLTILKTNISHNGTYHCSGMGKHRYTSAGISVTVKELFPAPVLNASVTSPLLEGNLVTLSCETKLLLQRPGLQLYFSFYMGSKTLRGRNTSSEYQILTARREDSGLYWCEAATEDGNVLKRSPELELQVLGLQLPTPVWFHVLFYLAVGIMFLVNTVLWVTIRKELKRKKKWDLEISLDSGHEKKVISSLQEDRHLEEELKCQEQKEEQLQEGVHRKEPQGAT
The assay can be described thus: flow cytometry on stable CHO cells expressing huCD64; hIgG1 [N297A] antibody, GMFI; the text ascribes this binding to the Fc portion. The procedure:
The binding of huCD32b specific antibodies was evaluated by flow cytometry using stable CHO cell lines expressing the low affinity human CD16 variants (i.e huCD16a or huCD16b variants) and the high affinity huCD64 (FcγRI). CHO cells transfected with huCD16a variants were also transfected with the common Fcγ chain in order to allow for surface expression. CHO cells were collected following detachment with PBS containing 2 mM EDTA and pelleted. Cell pellets were washed once in PBS and suspended in FACS Buffer (PBS1× containing 2% BSA, 2 mM EDTA and 0.1% NaN3), counted and suspended at 0.25×10⁶ cells per ml. 50'000 cells/well (200 μl) were then dispensed in V-bottomed 96 well plates. Plates were spun for 5 min at 1600 rpm and the supernatant discarded. […] After 3 successive washes with FACS buffer, cells were suspended in 50 μl FACS buffer containing a 1/100 dilution of the F(ab′)2 anti-human F(ab′)2-PE (Jackson Immunoresearch#109-116-097) and further incubated 30 min at 4° C. Cells were washed twice and suspended in 200 μl FACS buffer and acquired on a FACS Canto II (acquisition of 5000 cells in the live cell gate). The Geometric Mean Fluorescence (GMFI in the PE channel) was used as a measure of the binding intensity of each antibody.

The target of assay [4] is T4, WT human CD32b1 expressed on stably transfected cells (human, UniProt P31994 43-310).
T4 construct: also called huCD32b; WT CD32b
T4 sequence: T2 sequence (looked up)
The assay can be described thus: flow cytometry, Alexa-647 labelled hIgG1 [N297A] antibody, ΔMFI; stable BJAB cells expressing huCD32b.

Assay [5] deals with T5, huCD32b-deglyco (human, UniProt P31994 43-222, limits assumed, deglycosylated (deglyco) (so in the source)).
T5 construct: Soluble analyte of the SPR assay; also called huCD32b receptor (SPR analyte); human CD32b
T5 sequence: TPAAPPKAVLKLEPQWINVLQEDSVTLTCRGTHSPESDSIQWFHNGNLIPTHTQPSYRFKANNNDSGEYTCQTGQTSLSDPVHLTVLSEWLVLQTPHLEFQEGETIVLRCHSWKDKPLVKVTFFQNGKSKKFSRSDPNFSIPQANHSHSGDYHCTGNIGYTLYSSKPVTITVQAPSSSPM
The assay can be described thus: SPR (Biacore T200), IgG amine-coupled on the chip, huCD32b-deglyco analyte 0.61-5000 nM, 1:1 binding model; single experiment. As for the experimental part:
(§2) Three independent direct binding assays with IgGs covalently immobilized on the biosensor and huCD32b receptor serving as analyte were performed to determine the binding affinities of the IgGs for huCD32b. Kinetic data were acquired by subsequent injections of analyte dilution series on all flow cells. Flow cell 1 (chip 1) served as a reference.
(§3) A dilution series of huCD32b-deglyco, 0.61-5000 nM (1:2 dilution series) in running buffer was injected over the surface (flow rate: 30 μl/min, association time: 60 sec, dissociation time: 120 sec). The chip surface was regenerated with one basic wash step before each analyte injection (30 μl/min; contact time: 30 sec, stabilization period: 250 sec). Data were evaluated using the Biacore T200 evaluation software version 1.0. The raw data were double referenced, i.e. the response of the measuring flow cell was corrected for the response of the reference flow cell, and in a second step the response of a blank injection was subtracted. Outlier sensorgrams were removed if necessary. The sensorgrams were fitted by applying a 1:1 binding model to calculate kinetic rate constants and dissociation equilibrium constants. Rmax was set at global whereas RI was fitted locally. Data were processed individually for each run. The generated values were used to calculate average values and standard deviations of the respective kinetic constants.
Background: SPR reads the build-up and loss of mass on a sensor chip optically.

The target in assay [6] is T5, huCD32b-deglyco. The assay can be described thus: SPR (Biacore T200), IgG amine-coupled on the chip, huCD32b-deglyco analyte 0.61-5000 nM, 1:1 binding model; mean and standard deviation of the runs. The procedure:
as §2, §3

In assay [7] the target is T4, WT human CD32b1 expressed on stably …. Put plainly: flow cytometry on stable CHO cells expressing huCD32b (MW83); hIgG1 [N297A] antibody, GMFI. As for the experimental part:
as §1

B1: NOV0281_N297A (antibody, human IgG1, lambda, N297A)
heavy: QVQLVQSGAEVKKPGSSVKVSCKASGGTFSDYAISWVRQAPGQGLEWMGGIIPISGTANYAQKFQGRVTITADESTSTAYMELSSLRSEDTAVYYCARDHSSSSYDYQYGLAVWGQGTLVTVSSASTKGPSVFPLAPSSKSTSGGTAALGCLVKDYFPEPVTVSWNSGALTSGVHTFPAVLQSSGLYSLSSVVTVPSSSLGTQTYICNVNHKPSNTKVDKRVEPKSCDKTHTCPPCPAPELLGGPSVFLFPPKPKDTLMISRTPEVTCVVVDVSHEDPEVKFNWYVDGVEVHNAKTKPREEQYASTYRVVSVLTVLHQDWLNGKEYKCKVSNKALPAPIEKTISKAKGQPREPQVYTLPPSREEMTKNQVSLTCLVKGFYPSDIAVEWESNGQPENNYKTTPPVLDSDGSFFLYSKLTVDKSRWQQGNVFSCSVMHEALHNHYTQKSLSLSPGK
light: DIELTQPPSVSVSPGETASITCSGDKLGDYYVHWYQQKPGQAPVLVIYQDSKRPSGIPERFSGSNSGNTATLTISGTQAEDEADYYCGATDLSPWSIVFGGGTKLTVLGQPKAAPSVTLFPPSSEELQANKATLVCLISDFYPGAVTVAWKADSSPVKAGVETTTPSKQSNNKYAASSYLSLTPEQWKSHRSYSCQVTHEGSTVEKTVAPTECS
notes: also called NOV0281 on a human IgG1 [N297A] scaffold
As to B1, the binding result (with MW82 (huCD32a H131); in assay [3]) was “binds” in each case. Also, the “binding affinity (printed 'BJABs:')” value in assay [1] is 2.4 nM. In addition, the binding affinity in assay [2] came out at 5.4 nM.

B2: NOV0308_N297A (antibody, human IgG1, lambda, N297A)
heavy: not shown
light: DIELTQPPSVSVSPGQTASITCSGDNLGSKYVHWYQQKPGQAPVLVIYDDNKRPSGIPERFSGSNSGNTATLTISGTQAEDEADYYCQSWTLGNWVFGGGTKLTVLGQPKAAPSVTLFPPSSEELQANKATLVCLISDFYPGAVTVAWKADSSPVKAGVETTTPSKQSNNKYAASSYLSLTPEQWKSHRSYSCQVTHEGSTVEKTVAPTECS
notes: also called NOV0308 on a human IgG1 [N297A] scaffold
For B2, the “binding affinity (printed 'BJABs:')” value in assay [1] amounted to 4.2 nM. In assay [3], the binding result was “binds”.

B3: NOV1216_N297A (antibody, human IgG1, lambda, N297A)
heavy: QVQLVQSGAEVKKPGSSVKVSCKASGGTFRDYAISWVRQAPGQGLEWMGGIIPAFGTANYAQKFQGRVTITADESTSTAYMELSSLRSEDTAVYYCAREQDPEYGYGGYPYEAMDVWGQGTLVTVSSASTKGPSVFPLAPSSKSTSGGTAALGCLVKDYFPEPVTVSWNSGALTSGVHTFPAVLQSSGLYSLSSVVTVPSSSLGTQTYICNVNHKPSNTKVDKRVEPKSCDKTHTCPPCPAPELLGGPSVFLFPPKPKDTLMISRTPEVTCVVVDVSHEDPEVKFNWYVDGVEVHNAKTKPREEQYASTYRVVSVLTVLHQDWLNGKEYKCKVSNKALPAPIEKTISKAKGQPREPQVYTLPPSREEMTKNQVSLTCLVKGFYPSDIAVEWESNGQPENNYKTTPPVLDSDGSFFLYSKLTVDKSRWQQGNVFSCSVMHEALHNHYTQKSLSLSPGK
light: SYELTQPLSVSVALGQTARITCSGDNIPQHSVHWYQQKPGQAPVLVIYDDTERPSGIPERFSGSNSGNTATLTISRAQAGDEADYYCSSWDSSMDSVVFGGGTKLTVLGQPKAAPSVTLFPPSSEELQANKATLVCLISDFYPGAVTVAWKADSSPVKAGVETTTPSKQSNNKYAASSYLSLTPEQWKSHRSYSCQVTHEGSTVEKTVAPTECS
notes: Human IgG1 with N297A (Fc silent); also called Fc silent NOV1216
As for B3, the “binding affinity (printed 'BJABs:')” value in assay [1] turned out to be 0.7 nM. The same molecule displayed a binding affinity in assay [2] of 1.4 nM. Moreover, the binding result in assay [3] is given as “binds”.

B4: NOV2112 N297A (antibody, human IgG1, lambda, N297A)
heavy chain: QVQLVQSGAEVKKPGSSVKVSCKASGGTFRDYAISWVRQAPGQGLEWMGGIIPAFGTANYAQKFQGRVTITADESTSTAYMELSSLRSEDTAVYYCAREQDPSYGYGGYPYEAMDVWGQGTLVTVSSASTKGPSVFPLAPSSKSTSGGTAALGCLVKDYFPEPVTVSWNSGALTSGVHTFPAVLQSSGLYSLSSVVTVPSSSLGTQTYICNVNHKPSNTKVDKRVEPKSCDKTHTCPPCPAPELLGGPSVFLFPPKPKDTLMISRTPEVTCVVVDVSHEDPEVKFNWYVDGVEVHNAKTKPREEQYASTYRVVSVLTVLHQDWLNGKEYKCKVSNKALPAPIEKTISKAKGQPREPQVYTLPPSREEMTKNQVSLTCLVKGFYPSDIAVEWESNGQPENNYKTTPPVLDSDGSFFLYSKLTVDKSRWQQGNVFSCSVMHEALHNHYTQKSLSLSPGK
light chain: B3 light
On to B4, for which the binding result in assay [4] is reported as “binds”.

B5: afucosylated NOV2108 (antibody, human IgG1, lambda)
heavy: not shown
light: B3 light
modifications: afucosylated: N-glycan structure lacking core fucose
notes: also called NOV2108, afucosylated antibody; NOV2108 (afucosylated format)
As for B5, in the assay with huCD32b-deglyco [5], the equilibrium dissociation constant (Kd) (as a rule, the free concentration of one partner at which half of the binding sites on the other are occupied at equilibrium, for simple one-to-one binding) came out at 16 nM; the off-rate constant (koff) – broadly, the rate constant with which the complex falls apart – was 0.11 s⁻¹; the kon (as a rule, a measure of how fast the partners come together) came to 6.8e+06 M⁻¹ s⁻¹.

B6: NOV2108_N297A (antibody, human IgG1, lambda, N297A)
heavy: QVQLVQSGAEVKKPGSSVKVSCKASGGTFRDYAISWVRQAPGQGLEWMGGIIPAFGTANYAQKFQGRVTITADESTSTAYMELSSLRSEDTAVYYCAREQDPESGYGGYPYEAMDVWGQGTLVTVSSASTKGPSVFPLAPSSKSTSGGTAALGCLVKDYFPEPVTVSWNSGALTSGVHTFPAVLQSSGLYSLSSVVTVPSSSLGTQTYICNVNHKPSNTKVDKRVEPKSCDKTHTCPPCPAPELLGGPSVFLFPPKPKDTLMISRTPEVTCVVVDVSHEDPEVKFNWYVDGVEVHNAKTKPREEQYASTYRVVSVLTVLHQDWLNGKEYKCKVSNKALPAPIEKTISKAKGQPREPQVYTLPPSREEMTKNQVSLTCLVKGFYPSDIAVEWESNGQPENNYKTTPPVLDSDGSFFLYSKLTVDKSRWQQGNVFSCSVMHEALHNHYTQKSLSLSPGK
light: B3 light
notes: CDR-H3 mutant of NOV1216; human IgG1 with N297A; Alexa Fluor 647-labelled in flow cytometry; also called Fc silent NOV2108 [N297A]
In the assay with huCD32b-deglyco [6], B6 came in with a dissociation constant (Kd) of 18 nM, a koff of 0.29 s⁻¹ and a kon of 1.5e+07 M⁻¹ s⁻¹.

B7: NOV2107_N297A (antibody, human IgG1, lambda, N297A)
heavy: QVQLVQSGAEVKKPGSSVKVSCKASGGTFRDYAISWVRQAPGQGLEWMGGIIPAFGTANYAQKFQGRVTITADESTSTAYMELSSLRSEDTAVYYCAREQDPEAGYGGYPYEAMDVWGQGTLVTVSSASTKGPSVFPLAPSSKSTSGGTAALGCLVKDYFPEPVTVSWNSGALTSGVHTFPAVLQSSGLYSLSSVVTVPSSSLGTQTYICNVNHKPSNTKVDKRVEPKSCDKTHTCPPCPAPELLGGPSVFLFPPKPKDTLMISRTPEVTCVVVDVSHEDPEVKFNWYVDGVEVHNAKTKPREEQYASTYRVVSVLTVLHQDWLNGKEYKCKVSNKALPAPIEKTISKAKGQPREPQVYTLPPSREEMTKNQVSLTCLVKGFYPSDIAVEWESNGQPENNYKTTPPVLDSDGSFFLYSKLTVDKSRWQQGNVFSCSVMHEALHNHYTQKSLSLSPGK
light: B3 light
notes: CDR-H3 mutant of NOV1216; human IgG1 with N297A; also called Fc silent N297A variant of NOV2107
Regarding B7, the binding result in assay [4] is on record as “binds”.

B8: NOV1218 (antibody, human IgG1, lambda, N297A)
heavy chain: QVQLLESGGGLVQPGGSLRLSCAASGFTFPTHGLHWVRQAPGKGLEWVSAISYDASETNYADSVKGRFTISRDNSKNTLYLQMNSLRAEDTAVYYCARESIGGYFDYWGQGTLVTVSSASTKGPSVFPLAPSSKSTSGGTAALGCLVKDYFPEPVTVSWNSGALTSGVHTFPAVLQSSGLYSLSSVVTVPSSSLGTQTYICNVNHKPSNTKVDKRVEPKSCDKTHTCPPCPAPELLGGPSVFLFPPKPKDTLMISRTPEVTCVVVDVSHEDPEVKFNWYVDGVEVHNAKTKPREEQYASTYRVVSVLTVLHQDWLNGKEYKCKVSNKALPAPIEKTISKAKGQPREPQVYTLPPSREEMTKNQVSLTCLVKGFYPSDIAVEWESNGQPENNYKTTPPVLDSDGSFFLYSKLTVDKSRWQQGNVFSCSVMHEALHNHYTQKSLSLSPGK
light chain: SYELTQPLSVSVALGQTARITCSGDALGKNTVSWYQQKPGQAPVLVIYDDTDRPSGIPERFSGSNSGNTATLTISRAQAGDEADYYCSSTDLSTVVFGGGTKLTVLGQPKAAPSVTLFPPSSEELQANKATLVCLISDFYPGAVTVAWKADSSPVKAGVETTTPSKQSNNKYAASSYLSLTPEQWKSHRSYSCQVTHEGSTVEKTVAPTECS
notes: also called NOV1218_N297A; NOV1218 N297A
Take B8: the binding result (in the assay with MW82 (huCD32a H131); in assay [3]) was “binds” each time. Also, in assay [1], the “binding affinity (printed 'BJABs:')” value was 19 nM.

B9: NOV1219 (antibody, human IgG1, lambda, N297A)
heavy chain: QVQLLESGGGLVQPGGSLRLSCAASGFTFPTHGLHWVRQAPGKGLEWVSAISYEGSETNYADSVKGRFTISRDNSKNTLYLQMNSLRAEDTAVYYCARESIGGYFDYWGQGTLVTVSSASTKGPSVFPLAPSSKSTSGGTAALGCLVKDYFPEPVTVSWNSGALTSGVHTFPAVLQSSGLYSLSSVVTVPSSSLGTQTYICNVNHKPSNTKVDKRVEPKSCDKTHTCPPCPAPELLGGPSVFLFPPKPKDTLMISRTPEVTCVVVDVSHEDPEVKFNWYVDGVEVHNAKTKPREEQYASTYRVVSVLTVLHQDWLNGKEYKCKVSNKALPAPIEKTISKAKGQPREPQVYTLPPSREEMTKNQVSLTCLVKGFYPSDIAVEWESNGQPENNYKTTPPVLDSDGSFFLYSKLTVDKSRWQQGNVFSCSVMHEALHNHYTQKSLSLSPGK
light chain: B8 light chain
notes: also called NOV1219_N297A; NOV1219 on a human IgG1 [N297A] scaffold
In the case of B9, the binding result is given as “no binding (tested: 1000 nM)” in the assay with MW82 (huCD32a H131) and “binds” in assay [3]. The “binding affinity (printed 'BJABs:')” value in assay [1] is 110 nM. Besides, the EC50 (read off the curve) (as a rule, the concentration needed to bring the measured effect to its halfway point) in assay [7] is roughly 30 nM.
